Where a SMILES comes first, the peptide text is derived from it. The star is where a group is joined. Cbz = O=C(OCc1ccccc1)*; CHN2 = [N-]=[N+]=C*; tBu = CC(C)(C)*
Experiments:
SPHK1 = assay: Intracellular SPHK1 protein level in RAW264.7 (Western blot); format: cell-based, mouse; details: Fig. 3B
From the text: SPHK1 is cleaved by CTSB [20], and more importantly, SPHK1 can negatively regulate osteoclast differentiation by phosphorylating sphingosine into sphingosine-1-phosphate (S1P). Concordantly, we observed that Ctsb knockdown increased SPHK1 expression in primary bone marrow cells (Fig. 3A). […] Similarly, Sphk1 knockdown could also recover osteoclastogenesis of RAW264.7 that was suppressed by the treatment of CST6 recombinant (Fig. 3G, H).

[1] = system: murine primary bone marrow cells; assay: Osteoclastogenesis of primary bone marrow cells (TRAP staining); format: cell-based, mouse; details: n = 3 independent experiments; for osteoclast differentiation of primary bone marrow cells: 10 μM inhibitor, Fig. 2F
Method: (§1) Primary bone marrow cells were harvested by flushing the cavity of tibia and femur from 5-6 week old Balb/c mice. Erythrocytes were removed by treating cell suspension with the Red Blood Cell Lysing Buffer (R7757, Sigma) for 5 min. The remaining cells were cultured in α-MEM (A1049001, Gibco) supplemented with 10% FBS and 5 ng/ml M-CSF for 12 h. Non-adherent cells were transferred into a 24-well plate and cultured in α-MEM supplemented with 10% FBS, 25 ng/ml M-CSF and 25 ng/ml RANKL for another 5 to 6 days. Cancer cell CM was mixed with α-MEM at a ratio of 1:3. CST6 protein, peptides or other drugs at indicated concentrations were administrated into the culture medium. For assessment of osteoclast differentiation, cells were stained using the Acid Phosphatase TRAP staining kit (387A, Sigma) as previously described. For RAW264.7 osteoclastogenesis assay, 700 cells per well were added into a 96-well plate and cultured in the same medium as shown above except that M-CSF was not essential. 7 ug/ml CST6 antibody (MAB1286, R&D) was used to neutralize recombinant human CST6 in RAW264.7 osteoclastogenesis assay.

RAW264.7 cells [2] = assay: RAW264.7 osteoclastogenesis assay; format: cell-based, mouse
Method: as §1

SCP2 cells = assay: SCP2 bone metastasis in mice (intracardiac injection); format: in vivo, mouse
Method: For bone metastasis study was performed as previously described. Briefly, athymic Balb/c mice were anesthetized and 10^5 cells in 100 μL phosphate-buffered saline (PBS) were injected into the left cardiac ventricle. Peptides were administrated intravenously into the mice (n = 10 per group) at a dose of 1 mg/kg/day. The control mouse group were administered with same volume of peptide solvents. The metastatic burden was measured by bioluminescent imaging (BLI) with a NightOWL II LB983 Imaging System (Berthold). The osteolytic area was analyzed by the SkyScan 1076 In vivo X-ray Microtomograph (Bruker). The sections of hind legs of the mice was used for H&E, TRAP and immunohistochemistry staining.

p38 = assay: Phosphorylation of p38 in RAW264.7 (Western blot); format: cell-based, mouse
Method: To further validate the involvement of p38 signaling in CST6-suppresesed osteoclastogenesis, the p38 inhibitor SB203580 was used to treat RAW264.7 cells that were cultured in cancer cell CM.

RAW264.7 cells [3] = assay: Internalization of His-tagged CST6 protein by RAW264.7 (Western blot); format: cell-based, mouse; details: RAW264.7 cultured with CST6-His and various concentrations of Dynasore; Fig. 2K
Method: Cathepsins are lysosomal proteases and function only intracellularly in acidic environment. To verify that extracellularly derived CST6 could inhibit the intracellular CTSB activity of osteoclasts, RAW264.7 cells were cultured in the medium containing recombinant CST6 protein and the cell lysates were collected for CTSB activity analysis after phosphate-buffered saline (PBS) washing of the cells. […] Since osteoclasts are active in endocytosis, it is likely that exogenous CST6 is transported into osteoclasts via endocytosis. Indeed, we observed a co-localization of CST6 that entered the cells with the lysosome marker LAMP1 (Fig. S3B). […] Endocytosis inhibition also rescued the CST6-suppressed osteoclastogenesis of RAW264.7 cells (Fig. 2L).

Chronic toxicity assay = format: in vivo, mouse; details: 10 mg/kg CA-074 for 8 consecutive days, nude mice, n = 9 per group; Fig. S6B
Method: […] The body weights of the mice were measured. […] Mice were sacrificed and organs were harvested for weight measurements and H&E staining to observe the pathological changes.

[4] = Tissue distribution by CST6 immunohistochemistry; format: in vivo, mouse; details: week 5 of 1 mg/kg/day, Fig. S6A
Method: We then performed pharmacological evaluation of CST6 protein and peptides.
Supplementary Figure 6. Pharmacological evaluation of CST6 recombinant protein and CA-074.
(A) CST6 immunohistochemistry in various organs at week 5 after administration of 1 mg/kg/day CST6 peptides. The lung section from un-treated mice was used as negative control of the assay. Dotted lines denotes areas of bone metastasis. Scale bar, 150 μm. (B) The body weights of nude mice after treatment of 10 mg/kg CA-074 for 8 consecutive days (n = 9 mice per groups).
(1 picture or pasted object on this page, not shown here)

[5] = system: RAW264.7 or primary bone marrow-derived osteoclasts; assay: Viability of osteoclasts after CST6 recombinant protein treatment; format: cell-based, mouse; details: n = 4 independent experiments; Fig. S1E
CTSB = biological target: T1, CTSB (Mus musculus, UniProt P10605); assay: Intracellular CTSB activity of RAW264.7 after treatment; format: cell-based; details: 32 nM CST6 protein in medium, lysates after PBS washing; Fig. 2I
T1 construct: endogenous in cells; host or cells: RAW264.7
Method: Cathepsins are lysosomal proteases and function only intracellularly in acidic environment. To verify that extracellularly derived CST6 could inhibit the intracellular CTSB activity of osteoclasts, RAW264.7 cells were cultured in the medium containing recombinant CST6 protein and the cell lysates were collected for CTSB activity analysis after phosphate-buffered saline (PBS) washing of the cells. […] Since osteoclasts are active in endocytosis, it is likely that exogenous CST6 is transported into osteoclasts via endocytosis. Indeed, we observed a co-localization of CST6 that entered the cells with the lysosome marker LAMP1 (Fig. S3B). […]
Enzymatic activities of cathepsins were analyzed with the fluorometric kits of CTSB (K147, Biovision) and CTSL (K161, Biovision) according to the manufacturer's protocol. The LGMN activity was analyzed as previously described with minor modifications of the protocol. […] After three freeze-thaw cycles at -80 °C, the cell lysate was centrifuged at 10000 g for 15 min and the supernatant was transferred into a new tube followed by protein quantification. […] After adding 1 μL substrate Z-Ala-Ala-Asn-AMC (I1865, Bachem) into each well with a final concentration of 10 μM, fluorescence measurements were performed every 5 min at 37 °C using a BioTek's Synergy™ Mx Microplate Reader with a 360 nm excitation filter and a 460 nm emission filter. […]

Acute toxicity assay = format: in vivo, mouse; details: Balb/c mice, intravenous, death counted after 24 h, n = 5 per group
Method: For acute toxicity assays, Balb/c mice (n = 5 per group) were intravenously injected with the indicated protein or peptides at doses of 150, 200, 250, 300, 350 mg/kg. The death of mice was counted after 24 h. The median lethal dose (LD50) was calculated using the Bliss method.

[6] = Pharmacokinetic assay, circulation half-life; format: in vivo, mouse; details: Balb/c mice, 1 mg/kg intravenous, serum 0.25-4 h, ELISA (CST6 or His-tag), one-phase decay model; n = 4
Method: For pharmacokinetic assays, CST6 protein or His-tagged peptides were administrated intravenously into Balb/c mice (n = 4 per group) at a dose of 1 mg/kg. Blood samples (100 μL) were collected using capillary at 0.25 h, 0.5 h, 1 h, 2 h, 3 h and 4 h, respectively. After 1 h at room temperature, the serum samples were obtained from the supernatant by centrifugation at 3000 rpm for 15 min. The CST6 content in serum was analyzed with CST6 ELISA kit (Sino Biological, 10438). The peptide content was analyzed with the His-tag ELISA kit (GenScript, L00436) according to the manufacturer's instruction. Blank serum samples from mice without protein/peptide administration were used as control. Standard curves for each protein or peptide were generated with standard samples of known concentrations to calculate the protein/peptide concentration in blood samples. The data for all peptides were fitted with the one-phase decay model using Prizm software (GraphPad Software) to calculate the half-lives.

SCP2/SCP4 tumor cells = assay: Tumor cell growth after CST6 recombinant protein treatment; format: cell-based; details: 32 nM, n = 4 biological repeats, Fig. S1F
[7] = nude mice with SCP2, 1 mg/kg/day intravenous, n = 10 mice per group

T1 sequence (P10605 80-339): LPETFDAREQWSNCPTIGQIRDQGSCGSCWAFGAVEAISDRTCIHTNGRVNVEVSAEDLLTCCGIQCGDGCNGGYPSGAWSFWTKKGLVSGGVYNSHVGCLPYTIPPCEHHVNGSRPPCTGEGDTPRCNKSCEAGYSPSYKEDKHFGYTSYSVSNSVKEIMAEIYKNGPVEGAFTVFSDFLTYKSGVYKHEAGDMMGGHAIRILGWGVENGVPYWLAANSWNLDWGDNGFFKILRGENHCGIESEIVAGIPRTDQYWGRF

CCCNC(=O)[C@H]1O[C@@H]1C(=O)N[C@H](C(=O)N1CCC[C@H]1C(=O)OC)[C@@H](C)CC [CA-074Me]
intracellular SPHK1 protein (SPHK1): stabilized the intracellular SPHK1 protein in a dose-dependent manner | osteoclast differentiation of primary bone marrow cells [1]: able to inhibit osteoclast differentiation | osteoclast differentiation of RAW264.7 cells (RAW264.7 cells [2]; treatment with Z-FY or CA074Me, n = 3 independent experiments, Fig. 2G): able to inhibit osteoclast differentiation

CC(C)C[C@H](NC(=O)[C@H](Cc1ccccc1)NC(=O)c1cnccn1)B(O)O [Bortezomib, reference compound]
body weight of metastasis-bearing mice (SCP2 cells; nude mice with SCP2, 1 mg/kg/day, Fig. 5F, Fig. S5B (week 5)): but not Bortezomib, recovered the body weight of mice

CC(C)(C)Oc1ccc(C[C@H](NC(=O)[C@H](Cc2ccccc2)NC(=O)OCc2ccccc2)C(=O)C=[N+]=[N-])cc1 [Z-FY(t-Bu)-DMK] (Cbz-Phe-Tyr(tBu)-CHN2)
osteoclast differentiation of primary bone marrow cells [1]: but not the CTSL inhibitor Z-FY(t-Bu)-DMK, was able to inhibit osteoclast differentiation

C[S+]([O-])c1ccc(-c2nc(-c3ccncc3)c(-c3ccc(F)cc3)[nH]2)cc1 (stereo not drawn) [SB203580, reference compound]
CM-induced p38 phosphorylation (p38; RAW264.7 with RANKL and CM from CST6-knockdown or control SCP4, opposite to enhancement, Fig. 3K): showed the opposite effect | CM-induced osteoclast maturation of RAW264.7 (RAW264.7 cells [2]; RAW264.7 with RANKL and CM from CST6-knockdown or control SCP4, opposite to enhancement, Fig. 3L): showed the opposite effect

O=C(N/N=C/c1ccc(O)c(O)c1)c1cc2ccccc2cc1O [Dynasore]
effect on intracellular accumulation of CST6 (RAW264.7 cells [3]): reduced the intracellular accumulation of CST6 in a dosage-dependent manner

CCCNC(=O)[C@H]1O[C@@H]1C(=O)N[C@H](C(=O)N1CCC[C@H]1C(=O)O)[C@@H](C)CC [CA-074]
body weight of mice (Chronic toxicity assay): caused apparent body weight loss of the mice

B1: CST6: human CST6 recombinant protein expressed in E. coli, type 2 cystatin, inhibitor of cysteine proteases (protein, UniProt Q15828 29-149, looked up)
Cystatin-M: RPQERMVGELRDLSPDDPQVQKAAQAAVASYNMGSNSIYYFRDTHIIKAQSQLVAGIKYFLTMEMGSTDCRKTRVTGDHVDLTTCPLAAGAQQEKLRCDFEVLVVPWQNSSQLLKHNCVQM
modifications: His tag
intracellular SPHK1 protein (SPHK1): stabilized the intracellular SPHK1 protein in a dose-dependent manner | tissue distribution of administrated protein [4]: mainly distributed in liver, kidney, intestine, spleen and bone metastasis foci | viability of osteoclasts [5]: did not affect the viability of osteoclasts | intracellular CTSB activity of RAW264.7 (CTSB): inhibited the intracellular CTSB activity of RAW264.7 | p38 activation (p38; RAW264.7, Fig. 3B): inhibited p38 activation | LD50 (Acute toxicity assay; 150-350 mg/kg, Bliss method): 322.00 ± 117.10 mg/kg | MTD (Acute toxicity assay): 200 mg/kg | Half-life [6]: 10.48 min | growth of tumor cells (SCP2/SCP4 tumor cells): did not directly affect the growth of tumor cells | osteoclastogenesis of primary bone marrow cells ([1]; RANKL-containing medium, 5 to 6 days, TRAP staining, indicated concentrations): significantly suppressed RANKL-induced differentiation of bone marrow cells into osteoclasts in a dosage-dependent manner | bone metastasis (BLI) (SCP2 cells; nude mice pre-inoculated with SCP2, 1 mg/kg/day intravenous, n = 10 mice per group): efficiently alleviated bone metastasis | osteoclastogenesis and bone destruction in metastases (TRAP+ cells, micro-CT) (SCP2 cells; [7]): reduced osteoclastogenesis and bone destruction | survival of the mice (SCP2 cells; [7]): extended survival of the mice | expression of marker genes of osteoclastic differentiation (Caclr, Nfatc1, Acp5, Ctsk, Fos) (RAW264.7 cells [2]; RAW264.7, n = 3 biological repeats, Fig. 1J): downregulated | osteoclastic differentiation of RAW264.7 cells (RAW264.7 cells [2]; cultured with RANKL, 32 nM human CST6 protein, Fig. 1I): inhibition of osteoclastic differentiation of cells
